This note sets out measurements from patent US20140112919A1.

One assay deals with rat anti hIL-10 mAb 12G8. Kind of assay: competitive ECLA (IGEN): unlabeled IL-10 titrated against hIL-10-biotin for binding to rat 12G8.
Assay [1] has as its target T1, recombinant hIL-10Ra: FLAG-tagged protein (human) (UniProt Q13651).
T1 sequence: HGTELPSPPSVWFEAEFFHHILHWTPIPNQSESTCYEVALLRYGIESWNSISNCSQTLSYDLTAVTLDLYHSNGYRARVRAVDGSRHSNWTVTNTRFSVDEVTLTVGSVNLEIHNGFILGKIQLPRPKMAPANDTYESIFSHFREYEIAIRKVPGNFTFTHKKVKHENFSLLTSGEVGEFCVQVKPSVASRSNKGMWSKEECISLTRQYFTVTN
As to the kind of experiment: competitive ECLA (IGEN): unlabeled IL-10 titrated against hIL-10-biotin for binding to FLAG-tagged hIL-10Ra.

Chain of recombinant cyno IL-10 (P79338 19-178 limits assumed): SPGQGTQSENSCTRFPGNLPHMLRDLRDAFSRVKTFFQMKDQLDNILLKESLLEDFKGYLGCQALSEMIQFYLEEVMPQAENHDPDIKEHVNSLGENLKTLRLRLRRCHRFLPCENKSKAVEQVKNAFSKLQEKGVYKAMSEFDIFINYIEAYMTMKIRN

Broadly, the IC50 is the concentration that gives 50% inhibition. With “recombinant human IL-10 (from UniProt P22301) (ligand)”, the figures for the IC50 (with rat anti hIL-10 mAb 12G8; in assay [1]) were 4.7 nM and 2.9 nM, respectively.

For the substance “recombinant cyno IL-10 (from UniProt P79338) (ligand)”, the IC50 in the assay with rat anti hIL-10 mAb 12G8 came to 6.6 nM; in assay [1], 17.6 nM.

For the substance “recombinant human IL-10-monomer (from UniProt P22301) (ligand)”, the IC50 was found to be 7.1 nM in the assay with rat anti hIL-10 mAb 12G8 and 7.2 nM in assay [1].
